Patent publication US20140364360A1

Experiments:
CCR5 (human) [1] = biological target: CCR5 (human) (UniProt P51681); test: flow cytometry competition on CD8+ T cells of human PBMC; 5P12-RANTES at 0.8 ng/ml or less; competitor antibody 2D7
CCR5 (human) [2] = biological target: CCR5 (human) (UniProt P51681); test: flow cytometry competition on CD8+ T cells of human PBMC; 5P12-RANTES at 100 ng/ml or greater; competitor antibody 2D7

UniProt P51681, sequence (P51681 whole entry): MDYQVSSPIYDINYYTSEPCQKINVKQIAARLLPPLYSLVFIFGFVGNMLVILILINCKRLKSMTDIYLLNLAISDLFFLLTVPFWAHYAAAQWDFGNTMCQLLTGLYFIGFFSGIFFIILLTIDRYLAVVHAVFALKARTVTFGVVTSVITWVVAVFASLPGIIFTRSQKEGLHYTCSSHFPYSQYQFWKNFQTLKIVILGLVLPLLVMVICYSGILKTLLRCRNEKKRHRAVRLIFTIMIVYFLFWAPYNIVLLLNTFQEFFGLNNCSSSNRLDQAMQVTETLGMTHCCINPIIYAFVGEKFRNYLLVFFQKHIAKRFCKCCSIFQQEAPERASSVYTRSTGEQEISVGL

## 5P12-RANTES (ligand)
CCR5 (human) [1]
  2D7% binding: 20%
CCR5 (human) [2]
  2D7% binding: < 1%
